B1: COVIC-172 (antibody, V domains shown)
VH: QVQLVESGGDVVQPGRSLRLSCAASGFTFSRYGMHWVRQAPGKGLEWVAVISYDGSDKYYADSVKGRFTISRDNSKNTLYLQMNSLRAEDTAVYYCAKQLPLYYYYYGMDVWGQGTTVTVSS
VL: AIQLTQSPSSLSASVGDRVTITCRASQGISSALAWYQQKPGKAPNLLIYDASSLESGVPSRFSGSGSGTDFTLTISSLQPEDFATYYCQQFNIYPHTFGPGTKVDIKR
B2: COVIC-391 (antibody, V domains shown)
VH: QVQLVQSGAEVKKPGSSVKVSCKASGGTFSSYVINWVRQAPGQGLEWMGGIIPTLGTTNYAQKFQGRVTITADKSTSTAYMELSSLRSEDTAVYYCARAGGYSGSGSNYYMDVWGKGTTVTVSS
VL: QSVLTQPPSVSGAPGQRVTISCTGSSSNIGAGYDVHWYQQLPGTAPKLLIYANNNRPSGVPDRFSGSNSGTSASLAITGLQAEDEADYYCQSYDSSLSDSVFGGGTKLTVL
B3: COVIC-164 (antibody, V domains shown)
VH: EVQLVESGGGLIQPGGSLRLSCAAAGLTVSSNYMNWVRQVPGKGLEWVSVIYSGGSTYYADSVKGRFTISRDNSKNTLYLQMNSLRAEDTAVYYCARDLGTLGMDVWGQGTTVTVSS
VL: DIQLTQSPSFLSASVGDRVTITCWASQGISTYLAWYQQKPGKAPKLLIYAASTLQSGVPSRFSGSGSGTEFTLTISSLQPEDFATYYCQQLNSYLPTFGQGTKVEIKR
B4: COVIC-385 (antibody, V domains shown)
VH: EVQLVESGGGLVQPGGSLRLSCKASGISVAPHAVTWVRQAPGKGLEWIGVIASNADTYYASWAKGRFTISRDNSKNTLYLQMNSLRAEDTAVYYCARHPGSAGYGYTYYYAMDPWGQGTLVTVSS
VL: DIQMTQSPSSLSASVGDRVTITCQASERVFYGIDWYQQKPGKAPKLLIYGASALWHGVPSRFSGSGSGTDYTLTISSLQPEDFATYYCQQGYMVPIGFGGGTKVEIK
B5: COVIC-249 (antibody, V domains shown)
VH: QVQLVQPGGGVIQPGRSLRLSCTASGFTFSSYPMHWVRQAPGKGLEWVAVISYDGDNKYYADSVKGRFTISRDNSKNTLYLQMNSLKSDDTAMYYCARDYVVVILSDSFYYGMDVWGQGTTVTVSS
VL: QSALTQPRSVSGSPGQSVTISCTGTSSDVGGYNYVSWYQQYPGKAPKLMIYDVSKRPSGVPDRFSGSKSGNTASLTISGLQGEDEADYYCCSYAGSYTYVFGTGTKVTVL
B6: COVIC-166 (antibody, V domains shown)
VH: QVQLVESGGGVVQPGRSLRLSCAASGFTFSSYGMHWVRQAPGKGLEWVAVISYDGSDKYYADSVKGRFTISRDNSKNTLYLQMNSLRAEDTAVYYCAKTVAGYYYYYYGMDVWGQGTTVTVSS
VL: DIQMTQSPSSVSASVGDRVTVTCRASQDISSWLAWFQQKPGKAPKFLIYDASNLENGVPSRFSGSGSGTDFTLTISSLQPEDFATYYCQQAKSFPWTFGQGTKVEINR
B7: COVIC-140 (antibody, V domains shown)
VH: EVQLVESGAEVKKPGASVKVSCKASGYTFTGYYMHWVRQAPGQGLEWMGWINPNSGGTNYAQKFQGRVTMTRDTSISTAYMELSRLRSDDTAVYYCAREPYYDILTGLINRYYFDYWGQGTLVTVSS
VL: QSALTQPASVSGSPGQSITISCTGTSSDVGGYNFVSWYQQHPGKAPKLMIYEVSNRPSGVSNRFSGSKSGNTASLTISGLQAEDEADYYCSSYTSSSTRVFGGGTKLTVL
B8: COVIC-311 (antibody)
chain 1: QVQLVESGGGVVQSGRSLRLSCAASGFTFSSYAMHWVRQAPGKGLEWVAVISHDGSNTYYEDSVKGRFTISRDNSKNTLHLQVNSLRVEDTAVYYCARAKGEVRYFDWAEQGGDYWGQGTLVTVSSGGGGSGGGGSGGGGQVQLVQSGAEVKKPGSSVKVSCKASGGTFGISWVRQAPGQGLEWMGRIIPILGTANHAQKFQGRVTITADKSTGTVYMELSSLRSEDTAVYYCARDGDSGSYYETLGFDYWGQGTLVTVSS
chain 2: SYELTQPPSVSVSPGQTARITCSGDALPKKYAYWYQQKSGQAPVLVIYEDSKRPSGIPERFSGSSSGTMATLTISGAQVEDEADYYCYSTDNSGDHGVFGGGTKLTVLGGGGSGGGGSGGGGQSALTQPPSASGSPGQSVTISCTGTSSDVGGYNYVSWYQQHPGKAPKLMIYEVNKRPSGVPDRFSGSKSGNTASLTVSGLQAEDEADYYCSSYAGSNNLVFGGGTKLTVL

This assay addresses SARS-CoV-2 spike RBD (Wuhan-Hu-1) (Severe acute respiratory syndrome …, UniProt P0DTC2). Description: SPR.
For B1, the Kd worked out at 9.47 nM. Turning to B2, the Kd is 0.0198 nM.

The molecule B3 returned a Kd of 2.25 nM.

B4 showed a Kd of 0.0327 nM. In turn, B5 came in with a Kd of 9.81 nM. In the case of B6 it was 0.826 nM; in that of B7, 190 nM. In the case of B8 it was 3.03 nM.

The record behind these values is article PMC12014896 (2025).
